Source: article PMC4627230, “Identification of TAX2 peptide as a new unpredicted anti-cancer agent” (Oncotarget, 2015)

Target: T1, CD36, endogenous in HUVECs (human (endogenous in HUVECs), UniProt P16671 1-472)
T1 construct: CD36, endogenous in HUVECs; immunoprecipitated with anti-CD36; also called CD36-containing complexes; source: endogenous, HUVEC whole cell extracts
Assay: co-IP; antibody (anti-CD47 B6H12, anti-CD36, anti-FGF2, anti-VEGF, anti-β1 integrin, anti-LRP1 heavy chain) covalently coupled to resin (Pierce Co-IP kit), incubated with whole HUVEC protein lysate (or conditioned media) overnight at 4°C, no cross-linker; cells treated with 100 μM TAX2 or control peptide; for VEGFR2 also 30 ng/mL VEGF for 5 min; immunoblot
Details: partners not purified

T1 sequence (P16671 whole entry): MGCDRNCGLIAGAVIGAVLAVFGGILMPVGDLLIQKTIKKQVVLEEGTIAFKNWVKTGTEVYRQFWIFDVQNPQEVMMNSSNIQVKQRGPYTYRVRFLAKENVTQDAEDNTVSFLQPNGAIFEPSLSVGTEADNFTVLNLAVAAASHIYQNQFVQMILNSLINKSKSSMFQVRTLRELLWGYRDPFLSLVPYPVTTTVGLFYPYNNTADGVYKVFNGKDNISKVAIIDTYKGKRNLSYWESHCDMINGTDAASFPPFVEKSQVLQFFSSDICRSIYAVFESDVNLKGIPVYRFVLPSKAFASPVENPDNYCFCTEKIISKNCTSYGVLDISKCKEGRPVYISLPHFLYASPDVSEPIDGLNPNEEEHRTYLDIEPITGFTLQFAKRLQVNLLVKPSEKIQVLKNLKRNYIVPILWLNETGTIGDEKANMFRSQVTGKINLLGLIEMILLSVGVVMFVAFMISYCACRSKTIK

B1: thrombospondin-1 (TSP-1), endogenous in HUVECs (natural protein)
chain: not shown
notes: thrombospondin-1, endogenous in human umbilical vein endothelial cells; detected by anti-TSP-1 (clone A6.1); source: endogenous, HUVEC protein lysate or conditioned media
fold increase of co-immunoprecipitated TSP-1 with TAX2 (100 μM) against control: 3 fold
